Source: paper PMC4752726
Blank lines part the entries; values can stand above or below the substance they belong to.

Legend:
Assay in all cases: BLI
[1] = target: C-terminally biotinylated FcγRIIIa made from FcγRIIIa-ST-H6 by sortase-mediated ligation (human) (UniProt P08637)
[2] = target: High mannose IgG1 Fc (HM-Fc), di-glycosylated form (human)
[3] = target: GlcNAc-IgG1 Fc glycoform (GlcNAc-Fc) (human)
[4] = target: Man5-IgG1 Fc glycoform (Man5-Fc) (human)

- Kd [1]: 995 nM
- koff [1]: 0.161 s⁻¹
Substance: GlcNAc-IgG1 Fc glycoform (GlcNAc-Fc) (domain or fragment)

- Kd [1]: 26.4 nM
- koff [1]: 0.0079 s⁻¹
Substance: High mannose IgG1 Fc (HM-Fc), di-glycosylated form (domain or fragment)

Substance: soluble domain of FcγRIIIa with a C-terminal histidine tag (FcγRIIIa-H6) (receptor)
- Kd [2]: 27.7 nM
- koff [2]: 0.0054 s⁻¹
- kon [2]: 190000 M⁻¹ s⁻¹
- Kd [3]: 1120 nM
- koff [3]: 0.14 s⁻¹
- kon [3]: 120000 M⁻¹ s⁻¹
- Kd [4]: 31.8 nM
- koff [4]: 0.0051 s⁻¹
- kon [4]: 160000 M⁻¹ s⁻¹

- Kd [1]: 32.8 nM
Substance: Man5-IgG1 Fc glycoform (Man5-Fc) (domain or fragment)
